# Measurements: PMC11698047, “The dual Ras-association domains of Drosophila Canoe have differential roles in linking cell junctions to the cytoskeleton during morphogenesis” (Journal of Cell Science, 2024)
# Values joined by “and” are separate entries in the source; they are usually repeats but may differ in a detail not shown here. Identical values can stand only once.
# B1: Drosophila melanogaster Canoe RA1 domain (amino acids 1-137, including the αN helix) (domain or fragment, UniProt Q24279 1-137, looked up)
# chain: MSHDKKMLDREAVRSVIQQWNANRLDLFALSEPDENLLFHGVMRFYFQDAGQKVATKCIRVASDATVTDVIDTLIEKFRPDMRMLSVPNYALYEVHANGEERRLNADEKPLLVQLNWHIDDREGRFLLKNIDQKTTP
# notes: Canoe (Cno), Drosophila melanogaster, RA1 domain with its N-terminal αN helix, amino acids 1-137; The methods say that some RA1 preparations were purified without thrombin treatment; also called Cno RA1; source: E. coli BL21 DE3 pLysS, purified (Ni-NTA, thrombin cleavage, benzamidine sepharose, second Ni-NTA); not shown: His6, N-terminal, cleaved
# B2: Drosophila melanogaster Canoe RA2 domain (amino acids 222-350, including the αN helix), with His-tag (domain or fragment, UniProt Q24279 222-350, looked up)
# chain: TRSISNPEAVMRRRRQQKLEKKLQQFRSRDGGPDTGGTLKIYGESLCQDVPYKTLLLSIRDCAQAVVREMLTKYGLEKADPLHYCLVQVNSDGTEYILDDDECPLSILMNHPTSRGSIMFHVRRRPADS
# notes: Canoe (Cno), Drosophila melanogaster, RA2 domain with its N-terminal αN helix, amino acids 222-350; Cloned NdeI/EcoRI in pET28; also called Cno RA2; RA2 with His-tag; source: E. coli BL21 DE3 pLysS, purified (Ni-NTA, without thrombin treatment); not shown: His6, N-terminal, kept
# B3: Drosophila melanogaster GTPase Rap1G12V (amino acids 1-180), GMPPNP-loaded (enzyme, UniProt P08645 1-180, looked up)
# chain: MREYKIVVLGSVGVGKSALTVQFVQCIFVEKYDPTIEDSYRKQVEVDGQQCMLEILDTAGTEQFTAMRDLYMKNGQGFVLVYSITAQSTFNDLQDLREQILRVKDTDDVPMVLVGNKCDLEEERVVGKELGKNLATQFNCAFMETSAKAKVNVNDIFYDLVRQINKKSPEKKQKKPKKSL
# notes: Rap1 GTPase, Drosophila melanogaster, amino acids 1-180, constitutively active G12V mutant; Loaded with the non-hydrolysable nucleotide GMPPNP and Mg2+ (formula mass 21.0 kDa); Cloned NdeI/EcoRI in pET28; a few vector residues probably remain at the N-terminus after thrombin cleavage (surmised); also called Rap1-GMPPNP; Rap1G12V-GMPPNP; source: E. coli BL21 DE3 pLysS, purified (Ni-NTA, thrombin …)
# Assays:
# Conditions in all cases: both partners purified
# [1] = target: B3; assay: ITC; GMPPNP-loaded Rap1G12V (150-670 µM for RA1; 650-1200 µM for RA2) injected into the cell with RA1 (20-50 µM) or RA2 (42-80 µM); 25°C, buffer C (25 mM HEPES-NaOH pH 7.5, 100 mM NaCl, 5 mM MgCl2, 0.1% β-ME); one-site binding model
# [2] = target: B1; assay: as above
# [3] = target: B2; assay: as above
# [4] = target: B1; assay: SEC-MALS; 100 µl of individual proteins (200 µM) or RA domain-Rap1G12V-GMPPNP complexes (200 µM complex) on Superdex 200, 0.5 ml/min, buffer C (25 mM HEPES-NaOH pH 7.5, 100 mM NaCl, 5 mM MgCl2, 0.1% β-ME) with 0.2 g/l sodium azide; in duplicate
Kd [1],dH [2],stoichiometry N [2],dH [3],stoichiometry N [3],stoichiometry N [4],Binder
4.5 µM and 5.9 µM,,,,,,B1
8.8 µM and 7.9 µM and 8.7 µM,,,,,,B2
,-4380 cal/mol and -4790 cal/mol,0.717,-3070 cal/mol and -2180 cal/mol and -2720 cal/mol,0.755 and 0.73 and 0.63,1,B3
